Tests used:
[1] = target: human full-length cluster of differentiation 36 (CD36), glycosylated (human) (UniProt P16671); assay: flow cytometry on cells; Sf9 cells 72 h after baculovirus infection, 10 μg/ml DiI-HDL or DiI-oxLDL in ESF 921/0.5% BSA for 90 min at 4 °C; MFI compared with cells infected with empty vector
[2] = target: human full-length cluster of differentiation 36 (CD36), glycosylated (human) (UniProt P16671); assay: MST; Cy5-labeled receptor (RED-NHS, lysines) at constant 20 nM, ligand in a 16-point 1:1 dilution series; exchange buffer (50 mM Hepes pH 7.5, 150 mM NaCl, 0.025% LMNG, 0.005% CHS); 25 °C, 40% MST power; apparent Kd, one-site specific binding; molar values from average molecular weights (267.5 kDa HDL, 3500 kDa oxLDL)
[3] = target: human full-length scavenger receptor class B type 1 (SR-B1), glycosylated (human) (UniProt Q8WTV0); assay: as above
Chain of human full-length scavenger receptor class B type 1 (SR-B1), glycosylated (human) (Q8WTV0 other isoform, or with tags, fused parts or gaps): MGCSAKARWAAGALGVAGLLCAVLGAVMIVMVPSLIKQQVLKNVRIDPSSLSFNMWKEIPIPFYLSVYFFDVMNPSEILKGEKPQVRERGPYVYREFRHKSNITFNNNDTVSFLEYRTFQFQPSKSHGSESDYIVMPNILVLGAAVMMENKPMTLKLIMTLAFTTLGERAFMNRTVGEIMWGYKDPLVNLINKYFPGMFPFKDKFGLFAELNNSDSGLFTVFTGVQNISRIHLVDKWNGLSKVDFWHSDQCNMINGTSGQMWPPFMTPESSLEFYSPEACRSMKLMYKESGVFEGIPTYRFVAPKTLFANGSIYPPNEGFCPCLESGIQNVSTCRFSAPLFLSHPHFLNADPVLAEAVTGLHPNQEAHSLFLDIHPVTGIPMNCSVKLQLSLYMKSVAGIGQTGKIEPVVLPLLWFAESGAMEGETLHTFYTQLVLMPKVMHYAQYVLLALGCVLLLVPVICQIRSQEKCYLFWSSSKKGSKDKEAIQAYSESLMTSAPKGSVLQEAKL

[4] = target: human full-length scavenger receptor class B type 1 (SR-B1), glycosylated (human) (UniProt Q8WTV0); assay: flow cytometry on cells; Sf9 cells 72 h after baculovirus infection, 10 μg/ml DiI-HDL or DiI-oxLDL in ESF 921/0.5% BSA for 90 min at 4 °C; MFI compared with cells infected with empty vector

Chain of human full-length cluster of differentiation 36 (CD36), glycosylated (human) (P16671 whole entry): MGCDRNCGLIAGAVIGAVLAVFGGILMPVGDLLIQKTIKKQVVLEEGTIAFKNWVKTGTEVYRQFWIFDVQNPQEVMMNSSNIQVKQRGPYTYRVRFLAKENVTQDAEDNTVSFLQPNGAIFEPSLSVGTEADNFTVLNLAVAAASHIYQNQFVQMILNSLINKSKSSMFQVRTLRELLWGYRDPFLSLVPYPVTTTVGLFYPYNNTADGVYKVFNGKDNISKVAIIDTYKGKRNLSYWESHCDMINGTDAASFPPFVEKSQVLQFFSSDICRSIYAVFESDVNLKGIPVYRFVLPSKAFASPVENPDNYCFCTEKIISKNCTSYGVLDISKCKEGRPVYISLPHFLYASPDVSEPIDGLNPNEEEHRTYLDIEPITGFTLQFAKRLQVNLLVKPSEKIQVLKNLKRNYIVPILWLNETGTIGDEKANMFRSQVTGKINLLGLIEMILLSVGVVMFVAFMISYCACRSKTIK
Chain of human high-density lipoprotein (HDL), holoparticle (P02647 whole entry, looked up): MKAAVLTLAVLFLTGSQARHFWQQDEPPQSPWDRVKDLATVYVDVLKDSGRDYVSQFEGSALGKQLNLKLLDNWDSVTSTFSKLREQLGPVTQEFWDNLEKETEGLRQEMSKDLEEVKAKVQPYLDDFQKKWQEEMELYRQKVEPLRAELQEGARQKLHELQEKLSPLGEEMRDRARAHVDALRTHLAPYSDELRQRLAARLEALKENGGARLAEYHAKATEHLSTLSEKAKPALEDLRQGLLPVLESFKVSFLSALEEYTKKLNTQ
Chain of DiI-labeled high-density lipoprotein (DiI-HDL) (P02647 whole entry, looked up): as above

DiI-labeled oxidized low-density lipoprotein (DiI-oxLDL) (complex)
percent increase of DiI-oxLDL binding (MFI at 4 °C) against empty vector [1]: 21%

human high-density lipoprotein (HDL), holoparticle (from UniProt P02647 19-267) (complex)
Kd [2]: 123 nM
Kd [3]: 194 nM

DiI-labeled high-density lipoprotein (DiI-HDL) (from UniProt P02647 19-267) (complex)
percent increase of DiI-HDL binding (MFI at 4 °C) against empty vector [4]: 37%
